From patent US20030204066A1

Molecular target: human tumor necrosis factor-α (TNFα) (human) (UniProt P01375)
Assay: cell-based or functional assay

Chain of human tumor necrosis factor-α (TNFα) (human) (P01375 77-233): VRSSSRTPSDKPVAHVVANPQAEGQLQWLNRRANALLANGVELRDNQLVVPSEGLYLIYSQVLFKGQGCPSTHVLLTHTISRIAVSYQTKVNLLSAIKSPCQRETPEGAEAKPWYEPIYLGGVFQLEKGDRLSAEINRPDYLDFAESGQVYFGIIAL

B1: chimeric mouse/human IgG1 anti-platelet mAb (7E3) (antibody, INN chains, looked up, V domains shown)
VH: EVQLQQSGTVLARPGASVKMSCEASGYTFTNYWMHWVKQRPGQGLEWIGAIYPGNSDTSYIQKFKGKAKLTAVTSTTSVYMELSSLTNEDSAVYYCTLYDGYYVFAYWGQGTLVTVSA
VL: EIVLTQSPVTLSVTPGDSVSLSCRASRDISNNLHWFQQTSHESPRLLIKYASQSMSGIPSRFSGSGSGTDFTLSINSVETEDFGMYFCQQTNSWPYTFGGGTKLEIK
modifications: chimeric IgG1
B1 showed an IL-6 secreted by FS-4 fibroblasts (ng/ml) at 0.3 ng/ml TNF, 4 µg/ml antibody of 1.6 ng/mL, an IL-6 secreted by FS-4 fibroblasts (ng/ml) at 1.5 ng/ml TNF, 4 µg/ml antibody of 1.96 ng/mL and an IL-6 secreted by FS-4 fibroblasts (ng/ml) at 7.5 ng/ml TNF, 4 µg/ml antibody of 2.16 ng/mL.
